± gives the uncertainty stated by the source.
Assay: self-splicing fitness, log relative to wild type (ln ratio); higher = more splicing; Tetrahymena group I intron in knt gene, E. coli kanamycin selection, DiMSum; sequences stand for … in CUCUCU…GGAGGGAAAAGUUAUCAGGCAUGCACCUGGUAGCUAGUCUUUAAACCAAUAGAUUGCAUCGGUUUAAAAGGCAAGACCGUCAAAUUGCGGGAAAGGGGUCAACAGCCGUUCAGUACCAAGUCUCAGGGGAAACUUUGAGAUGGCCUUGCAAAGGGUAUGGUAAUAAGCUGACGGACAUGGUCCUAACCACGCAGCCAAGUCCUAAGUCAACAGAUCUUCUGUUGAUAUGGAUGCAGUUCACAGACUAAAUGUCGGUCGGGGAAGAUGUAUUCUUCUCAUAAGAUAUAGUCGGACCUCUCCUUAAUGGGAGCUAGCGGAUGAAGUGAUGCAACACUGGAGCCGCUGGGAACUAAUUUGUAUGCGAAAGUAUAUUGAUUAGUUUUGGAGUACUCGUGGUCG
Outline: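 Library with all eight P1ex-region intron nucleotides randomised, intron inside the knt kanamycin-resistance gene on pET-22b(+), in E. coli BL21(DE3). Cells grew overnight at 37°C or 30°C on LB agar with or without 25 μg/mL kanamycin (plus 100 μg/mL carbenicillin, 50 μM IPTG, 0.2% rhamnose), in six replicate transformations. Pooled colonies were amplicon-sequenced on Illumina HiSeq 2500. DiMSum fitness is the error-weighted combination of wild-type-normalised replicate fold changes, kanamycin versus none.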

Sequence | self-splicing fitness (ln) (30 °C) | self-splicing fitness (ln) (37 °C)
GAGUAGCAAUAUUACGAAUC | -2.47 ± 0.23 | -2.31 ± 0.24
UCCAAGCAAUAUUACGCCGA | -0.365 ± 0.14 | 0.242 ± 0.13
ACGUAGCAAUAUUACGCGCC | -1.23 ± 0.19 | -0.895 ± 0.25
ACUCAGCAAUAUUACGCGCA | -0.615 ± 0.14 | -0.153 ± 0.1
GACAAGCAAUAUUACGCGUU | -4.47 ± 0.34 | -3 ± 0.35
ACUAAGCAAUAUUACGCCGU | -1.86 ± 0.2 | -1.64 ± 0.18
UAAAAGCAAUAUUACGAUAG | -0.934 ± 0.078 | -0.765 ± 0.088
AACUAGCAAUAUUACGAGCU | -1.5 ± 0.095 | -0.511 ± 0.11
AGAUAGCAAUAUUACGGUAG | -3.93 ± 0.37 | -1.69 ± 0.21
CGUCAGCAAUAUUACGAUGG | -1.27 ± 0.054 | -0.0354 ± 0.084
GGUCAGCAAUAUUACGGGAG | -3.38 ± 0.22 | -1.45 ± 0.12
GUUCAGCAAUAUUACGUUAU | -0.292 ± 0.077 | -0.207 ± 0.099
GCCUAGCAAUAUUACGACUG | -3.25 ± 0.27 | -2.97 ± 0.4
GAAGAGCAAUAUUACGGAGA | -3.22 ± 0.31 | -1.88 ± 0.32
UAAUAGCAAUAUUACGAGAU | -4.03 ± 0.43 | -2.38 ± 0.47
GCACAGCAAUAUUACGUGGU | -3.37 ± 0.12 | -1.82 ± 0.097
AUGGAGCAAUAUUACGUACU | -0.848 ± 0.16 | -0.491 ± 0.18
AAUGAGCAAUAUUACGCGAC |  | -1.67 ± 0.48
GCCCAGCAAUAUUACGAAAU | -1.7 ± 0.068 | -1.36 ± 0.089
UUUCAGCAAUAUUACGGAAG | -1.69 ± 0.12 | -0.536 ± 0.19
GUGUAGCAAUAUUACGGCCA | 0.628 ± 0.35 | -0.349 ± 0.44
GAACAGCAAUAUUACGACCU | -0.509 ± 0.099 | -0.0216 ± 0.13
AACGAGCAAUAUUACGUCAG | -3.08 ± 0.29 | -2.97 ± 0.34
UAGCAGCAAUAUUACGUUCA | 0.0863 ± 0.062 | 0.0609 ± 0.1
CCCGAGCAAUAUUACGGACC | -3 ± 0.28 | 

Sequence | self-splicing fitness (ln) (30 °C) | self-splicing fitness (ln) (37 °C)
AUAUAGCAAUAUUACGGUUU | -1.31 ± 0.091 | -0.854 ± 0.11
GCCGAGCAAUAUUACGGAGG | -3.45 ± 0.18 | -2.1 ± 0.21
CCUCAGCAAUAUUACGUAGC | -3.9 ± 0.19 | -2.73 ± 0.28
CGUUAGCAAUAUUACGAAUU |  | -2.39 ± 0.33
GUCUAGCAAUAUUACGAUAA | -1.09 ± 0.22 | 0.55 ± 0.23
UCAAAGCAAUAUUACGUUUA | -2.71 ± 0.16 | -2.51 ± 0.18
GUGUAGCAAUAUUACGGGUU | -2.77 ± 0.21 | -1.22 ± 0.17
CUGUAGCAAUAUUACGGCCG | -0.368 ± 0.13 | 0.257 ± 0.16
ACGGAGCAAUAUUACGACCG | -2.1 ± 0.17 | -1.78 ± 0.25
ACCAAGCAAUAUUACGCAUG | -3.75 ± 0.11 | -2.2 ± 0.11
CACGAGCAAUAUUACGGAUA | -2.98 ± 0.27 | -2.06 ± 0.24
GUAGAGCAAUAUUACGUGCA | -0.339 ± 0.11 | 0.541 ± 0.18
CAACAGCAAUAUUACGCAGG | -2.19 ± 0.11 | -0.807 ± 0.085
AUGGAGCAAUAUUACGCACC | -2.45 ± 0.4 | -1.26 ± 0.22
AGGCAGCAAUAUUACGGUCU | -3.15 ± 0.24 | -2.61 ± 0.25
CUUGAGCAAUAUUACGAUUG | -2.49 ± 0.13 | -1.32 ± 0.14
CCCCAGCAAUAUUACGUUCG | -3.53 ± 0.16 | -2.79 ± 0.17
UGUCAGCAAUAUUACGGGCG | -1.71 ± 0.093 | -1.26 ± 0.12
AUCUAGCAAUAUUACGUGCU | -2.25 ± 0.17 | -1.97 ± 0.28
GUAGAGCAAUAUUACGUAUA | -1.7 ± 0.28 | -0.319 ± 0.25
AUGAAGCAAUAUUACGCUUC | -1.79 ± 0.15 | -2.99 ± 0.41
UAAUAGCAAUAUUACGGUAU | -3.69 ± 0.21 | -2.68 ± 0.23
GAACAGCAAUAUUACGACAA | -1.24 ± 0.13 | -0.239 ± 0.15
GGAGAGCAAUAUUACGUGCG | -1.7 ± 0.14 | -2.06 ± 0.23
GCGAAGCAAUAUUACGCAUC | -4.03 ± 0.44 | -1.78 ± 0.23

Sequence | self-splicing fitness (ln) (30 °C) | self-splicing fitness (ln) (37 °C)
ACAGAGCAAUAUUACGCUUC | -3.96 ± 0.24 | -2.16 ± 0.3
GCUGAGCAAUAUUACGCAGU | -4.98 ± 0.45 | -3.31 ± 0.34
GUUGAGCAAUAUUACGAGGA | -2.48 ± 0.45 | 
UGUUAGCAAUAUUACGCGCG | -1.36 ± 0.19 | -0.771 ± 0.21
AAGAAGCAAUAUUACGAAAU | -1.98 ± 0.17 | -2.03 ± 0.19
AUGCAGCAAUAUUACGGGUC | -3.56 ± 0.31 | -1.61 ± 0.13
UCCCAGCAAUAUUACGUGAG | -1.52 ± 0.08 | -0.669 ± 0.083
GCACAGCAAUAUUACGUGUA | -1.03 ± 0.052 | -0.512 ± 0.056
CCCUAGCAAUAUUACGUGGU | -4.61 ± 0.2 | -2.27 ± 0.14
GUUCAGCAAUAUUACGGGCU |  | -1.56 ± 0.28
ACCAAGCAAUAUUACGUACG | -2.52 ± 0.083 | -1.28 ± 0.092
UGCAAGCAAUAUUACGAGGU | -3.41 ± 0.23 | -2.26 ± 0.17
AGACAGCAAUAUUACGCGUA | -1.43 ± 0.084 | -0.867 ± 0.074
UGGGAGCAAUAUUACGUGAG | -2.33 ± 0.18 | -1.14 ± 0.14
GCCCAGCAAUAUUACGCGAA | -2.09 ± 0.071 | -0.554 ± 0.072
CCAAAGCAAUAUUACGGCGG | -3.8 ± 0.15 | -2.48 ± 0.16
CUACAGCAAUAUUACGAAUU | -3.04 ± 0.14 | -2.94 ± 0.24
UGUCAGCAAUAUUACGUAUG | -0.239 ± 0.063 | 0.657 ± 0.086
UGUUAGCAAUAUUACGGUGC | -3.76 ± 0.43 | -2.88 ± 0.32
CUGAAGCAAUAUUACGGUGG | -1.02 ± 0.065 | -0.466 ± 0.094
AGCUAGCAAUAUUACGGUAC | -2.2 ± 0.26 | -1.1 ± 0.24
CUCCAGCAAUAUUACGUACA | -3.85 ± 0.19 | -2.08 ± 0.2
GGCGAGCAAUAUUACGGGAC | -2.22 ± 0.2 | -1.1 ± 0.27
GGCGAGCAAUAUUACGAGCG | -0.88 ± 0.14 | -0.433 ± 0.17
GGCUAGCAAUAUUACGAUUA | -0.803 ± 0.085 | -0.572 ± 0.079

Sequence | self-splicing fitness (ln) (30 °C) | self-splicing fitness (ln) (37 °C)
UUUAAGCAAUAUUACGAUCG | -0.416 ± 0.12 | 0.237 ± 0.17
AGACAGCAAUAUUACGGGCU | -1.78 ± 0.11 | -0.732 ± 0.13
UAUAAGCAAUAUUACGAGAU | -4.28 ± 0.31 | -2.54 ± 0.28
AACCAGCAAUAUUACGUGCC | -1.44 ± 0.063 | -0.956 ± 0.079
CCUAAGCAAUAUUACGUAGG | -3.82 ± 0.15 | -2.94 ± 0.22
CUUCAGCAAUAUUACGUUAA | -2.84 ± 0.24 | -3.51 ± 0.46
GACAAGCAAUAUUACGAUUC | -0.734 ± 0.083 | -0.552 ± 0.12
GUUUAGCAAUAUUACGCCGU | -2.03 ± 0.13 | -0.93 ± 0.14
AGUGAGCAAUAUUACGAAGA | -2.9 ± 0.35 | -1.85 ± 0.18
GCCUAGCAAUAUUACGGCCG | -3.44 ± 0.26 | -2.37 ± 0.32
AUACAGCAAUAUUACGAGAU | -3.35 ± 0.14 | -1.18 ± 0.11
GUCCAGCAAUAUUACGCCCU | -0.888 ± 0.13 | -0.617 ± 0.18
UCCAAGCAAUAUUACGGAGG | -4.42 ± 0.27 | -2.81 ± 0.29
AGCGAGCAAUAUUACGUUAU | -3.81 ± 0.36 | -0.895 ± 0.16
CAGCAGCAAUAUUACGUCCG | 0.0818 ± 0.076 | 0.283 ± 0.086
GUACAGCAAUAUUACGCACC | -2.67 ± 0.26 | -2.35 ± 0.38
GUUUAGCAAUAUUACGCUUG | -1.18 ± 0.099 | 0.632 ± 0.15
AGUCAGCAAUAUUACGUGAA | -1.5 ± 0.065 | -1.09 ± 0.082
CUUGAGCAAUAUUACGAGAC | -2.12 ± 0.33 | 
CGUUAGCAAUAUUACGUGUC | -4.28 ± 0.37 | -2.18 ± 0.18
CUUCAGCAAUAUUACGCUGC |  | -1.65 ± 0.18
CCGCAGCAAUAUUACGUCCA | -2.28 ± 0.27 | 0.175 ± 0.2
